Reference: patent US20120171210A1, “METHODS AND COMPOSITIONS FOR INHIBITING C-MET DIMERIZATION AND ACTIVATION” (Genentech, Inc., priority 2003, published 2012)

Columns and labels:
MAPK [1] = assay: MAPK phosphorylation in A549 cells (immunoblot); assay type: cell-based, Human
Method: (§1) Cell lines were obtained from American Type Culture Collection (ATCC). 293 cells were maintained in DMEM supplemented with 10% FBS (Sigma), penicillin/streptomycin (GIBCO), and glutamine A549, H441, and MDA-MB-435 cells were maintained in 50:50 DMEM/F12 (Cellgro) supplemented with 10% FBS, penicillin/streptomycin, and glutamine Cells were transfected with 1-12 μg of the indicated constructs using Lipofectamine 2000 (Invitrogen) according to manufacturer's instructions. Twenty-four hrs later cells were harvested with 1% NP40 lysis buffer containing Complete protease inhibitor cocktail tablet and phosphatase inhibitor cocktail 2 (Roche and Sigma, respectively). For Met tyrosine phosphorylation and MAPK phosphorylation studies, cells were serum-starved for 2 hr with 0.5% BSA. Cells treated with 10 μg/ml anti-Met 5D5-Fab or rSema were incubated for an additional 1 hr prior to lysis. Cell debris was centrifuged and the supernatant was precleared with Protein A Sepharose (Sigma) or Protein G-Plus agarose beads (Santa Cruz) for 1 hr. 500 μg of lysates was then immunoprecipitated with 10 μg 5D5 antibody (Genentech) or 35 ul of Met (C-28) agarose conjugate (Santa Cruz) overnight at 4° C. with rotation. For HGF binding studies, 500 μg of lysates were incubated with 5 μg scHGF or HGF followed by immunoprecipitation with 1 μg of V5 antibody. Protein A or G beads were added for an additional 2 hrs before immunoprecipitates were washed 3 times with 1% NP40 lysis buffer. After addition of 2× sample buffer with 10 mM DTT, the samples were run on 4-12% Tris-glycine gels (Invitrogen). […] Proteins were detected by enhanced chemiluminescence (ECL-Plus, Amersham).
(§2) Human tumor cells were treated with increasing concentrations of rSema and analyzed for Met tyrosine phosphorylation and downstream activation of mitogen activated protein kinase (MAPK) upon HGF stimulation. […]

MAPK [2] = assay: MAPK phosphorylation in H441 cells (immunoblot); assay type: cell-based, Human
Method: as §1, with “hr.” for “hr. 500 μg of lysates was then immunoprecipitated with 10 μg 5D5 antibody (Genentech) or 35 ul of Met (C-28) agarose conjugate (Santa Cruz) overnight at 4° C. with rotation. For HGF binding studies, 500 μg of lysates were incubated with 5 μg scHGF or HGF followed by immunoprecipitation with 1 μg of V5 antibody. Protein A or G beads were added for an additional 2 hrs before immunoprecipitates were washed 3 times with 1% NP40 lysis buffer. After addition of 2× sample buffer with 10 mM DTT, the samples were run on 4-12% Tris-glycine gels (Invitrogen).”
as §2

MAPK [3] = assay: MAPK phosphorylation in MDA-MB-435 cells (immunoblot); assay type: cell-based, Human
Method: as §1, with “hr.” for “hr. 500 μg of lysates was then immunoprecipitated with 10 μg 5D5 antibody (Genentech) or 35 ul of Met (C-28) agarose conjugate (Santa Cruz) overnight at 4° C. with rotation. For HGF binding studies, 500 μg of lysates were incubated with 5 μg scHGF or HGF followed by immunoprecipitation with 1 μg of V5 antibody. Protein A or G beads were added for an additional 2 hrs before immunoprecipitates were washed 3 times with 1% NP40 lysis buffer. After addition of 2× sample buffer with 10 mM DTT, the samples were run on 4-12% Tris-glycine gels (Invitrogen).”
as §2

H441 cells = assay: Scrape assay (Met mediated cell motility); assay type: cell-based, Human
Method: H441 cells were seeded at a density of 4.5×10^4 cells/well in a 96-well plate with 10% FBS in 50:50 DMEM/F12. The next day, a single scrape was made in the confluent monolayer in each well as described previously (Lorenzato et al., 2002). The cells were then incubated with media containing 0.5% BSA and treated with mock, 10 μg/ml 5D5, 10 μg/ml Sema, or 100 ng/ml HGF. The scrape was monitored and photographed daily. Representative results are shown for Day 2.
H441 cells were used in a scrape assay as a measure of Met mediated cell motility (Lorenzato et al., 2002). H441 cells grown to high density were scraped in each well on day 0 and maintained in serum-free media containing 0.5% BSA for the duration of the experiment (FIG. 6). Cells were either treated with 10 μg/ml rSema or 5D5 or 100 ng/ml HGF as a positive control or mock treated. […] These observations were consistent in four separate experiments.
To examine the effect of rSema on cell motility in the presence of ligand, cells were treated with 0, 0.1, 0.5, or 5 μg/ml rSema plus 20 ng/ml HGF. Cells treated with HGF alone closed the gap completely by Day 1.

MDA-MB-435 cells = assay: Transwell migration assay; assay type: cell-based, Human; settings: MDA-MB-435, 10 μg/ml in upper chamber, absence of HGF, vs mock
Method: Transwell migration assays were carried out as previously described with modifications (Coltella et al., 2003). MDA-MB-435 cells were seeded at 1.2×10^5 cells in media containing 0.5% BSA to the upper chamber of each transwell (Costar) that had been previously coated with 10 ug/ml collagen type IV (Sigma). Mock, 10 μg/ml anti-Met 5D5-Fab, or 10 μg/ml Sema was added to the upper chamber. As a positive control, 100 ng/ml HGF was also added to the lower chamber of mock-treated wells. The next day, the cells were fixed with 4% paraformaldehyde and stained with 0.5% crystal violet. Cells that had migrated to the lower chamber were solubilized with 10% acetic acid and the absorbance was measured at 560 nm in a microplate reader.
A transwell assay with MDA-MB-435 cells was used to measure Met driven cell migration (Coltella et al., 2003). […] The data correlated with the scrape assay results in the H441 cell line. Activation of Akt was also examined in H441 and MDA-MB-435 cells used in the cell motility and migration assays. […] The data correlated with observations that rSema can inhibit cell motility in the presence of ligand. […]

Akt [4] = assay: Akt phosphorylation in H441 cells; assay type: cell-based, Human; settings: H441, increasing concentrations of rSema in the presence of HGF; data not shown
Source text: (§3) A transwell assay with MDA-MB-435 cells was used to measure Met driven cell migration (Coltella et al., 2003). […] The data correlated with the scrape assay results in the H441 cell line. Activation of Akt was also examined in H441 and MDA-MB-435 cells used in the cell motility and migration assays. […] The data correlated with observations that rSema can inhibit cell motility in the presence of ligand. Taken together, these observations supports the conclusion that a Sema domain antagonist, such as a recombinant polypeptide comprising a Sema sequence, is capable of not only inhibiting Met activation, but also blocking downstream effects of cell motility and migration in both ligand dependent and independent contexts.

Akt [5] = assay: Akt phosphorylation in MDA-MB-435 cells; assay type: cell-based, Human; settings: MDA-MB-435, increasing concentrations of rSema in the presence of HGF; data not shown
Source text: as §3

Met = Met (Homo sapiens, UniProt P08581); assay: Met tyrosine phosphorylation in A549 cells (immunoprecipitation / phosphotyrosine immunoblot); assay type: cell-based; parameters: endogenous in cells; host or cells: A549 (lung carcinoma)
Method: as §1, §2

[6] = A549, serum-free, 10 μg/ml, absence of HGF, vs mock

Chain of Met (P08581 308-1390, one chain of several): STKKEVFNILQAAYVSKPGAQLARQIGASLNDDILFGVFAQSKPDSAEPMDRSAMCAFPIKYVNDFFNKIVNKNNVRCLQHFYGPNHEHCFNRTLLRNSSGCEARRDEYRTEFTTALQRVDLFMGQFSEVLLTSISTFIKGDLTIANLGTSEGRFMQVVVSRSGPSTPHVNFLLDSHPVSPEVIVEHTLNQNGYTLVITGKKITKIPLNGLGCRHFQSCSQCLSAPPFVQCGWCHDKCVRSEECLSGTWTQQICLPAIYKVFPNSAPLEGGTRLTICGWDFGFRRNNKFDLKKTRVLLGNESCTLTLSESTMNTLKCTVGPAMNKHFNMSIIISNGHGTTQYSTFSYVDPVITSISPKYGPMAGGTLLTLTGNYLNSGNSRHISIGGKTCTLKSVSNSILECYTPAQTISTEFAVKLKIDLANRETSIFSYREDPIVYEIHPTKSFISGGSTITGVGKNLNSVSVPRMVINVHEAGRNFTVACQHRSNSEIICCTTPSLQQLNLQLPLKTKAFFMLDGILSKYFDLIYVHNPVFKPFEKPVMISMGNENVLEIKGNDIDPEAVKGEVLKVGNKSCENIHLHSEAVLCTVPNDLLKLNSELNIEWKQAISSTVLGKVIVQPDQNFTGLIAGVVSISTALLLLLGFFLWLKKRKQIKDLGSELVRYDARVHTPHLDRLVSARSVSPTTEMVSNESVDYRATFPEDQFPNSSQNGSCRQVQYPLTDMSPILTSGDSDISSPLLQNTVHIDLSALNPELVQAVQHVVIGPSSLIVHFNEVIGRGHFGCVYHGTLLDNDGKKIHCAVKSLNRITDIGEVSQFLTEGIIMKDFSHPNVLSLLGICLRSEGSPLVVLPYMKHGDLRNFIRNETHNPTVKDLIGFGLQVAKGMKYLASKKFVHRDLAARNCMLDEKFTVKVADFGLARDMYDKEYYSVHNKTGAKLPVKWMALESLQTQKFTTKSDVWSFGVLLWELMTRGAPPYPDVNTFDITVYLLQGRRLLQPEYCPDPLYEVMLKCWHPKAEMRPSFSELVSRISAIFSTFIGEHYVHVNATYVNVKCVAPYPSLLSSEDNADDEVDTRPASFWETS

B1: rSema: recombinant Sema (rSema) protein, which included the Sema and PSI domains of the Met receptor (residues 25-567, 8×His tag) (protein)
chain: ECKEALAKSEMNVNMKYQLPNFTAETPIQNVILHEHHIFLGATNYIYVLNEEDLQKVAEYKTGPVLEHPDCFPCQDCSSKANLSGGVWKDNINMALVVDTYYDDQLISCGSVNRGTCQRHVFPHNHTADIQSEVHCIFSPQIEEPSQCPDCVVSALGAKVLSSVKDRFINFFVGNTINSSYFPDHPLHSISVRRLKETKDGFMFLTDQSYIDVLPEFRDSYPIKYVHAFESNNFIYFLTVQRETLDAQTFHTRIIRFCSINSGLHSYMEMPLECILTEKRKKRSTKKEVFNILQAAYVSKPGAQLARQIGASLNDDILFGVFAQSKPDSAEPMDRSAMCAFPIKYVNDFFNKIVNKNNVRCLQHFYGPNHEHCFNRTLLRNSSGCEARRDEYRTEFTTALQRVDLFMGQFSEVLLTSISTFIKGDLTIANLGTSEGRFMQVVVSRSGPSTPHVNFLLDSHPVSPEVIVEHTLNQNGYTLVITGKKITKIPLNGLGCRHFQSCSQCLSAPPFVQCGWCHDKCVRSEECLSGTWTQQICLPAIYKHHHHHHHH
Question: With B1 as the molecule, how does the “phosphorylation of MAPK” value (MAPK [1]; A549, increasing concentrations of rSema in the presence of HGF (10 ng/ml)) read?
Answer: The value was “phosphorylation of MAPK decreased”.

Question: What about the phospho-MAPK levels (MAPK [1]; [6]) of the same molecule?
Answer: The phospho-MAPK levels was “inhibition”.

Question: And the phospho-MAPK (MAPK [2]; H441, 0-100 μg/ml rSema plus 5 ng/ml HGF, 5 min)?
Answer: Its phospho-MAPK is “dose dependent decrease in phospho-MAPK”.

Question: And the MAPK phosphorylation (MAPK [2]; H441, 10 μg/ml, absence of HGF)?
Answer: The MAPK phosphorylation was “decrease in MAPK phosphorylation”.

Question: What about the phospho-MAPK (MAPK [3]; MDA-MB-435, 0-100 μg/ml rSema plus 10 ng/ml HGF, 5 min) of the same molecule?
Answer: Its phospho-MAPK is “dose dependent decrease in phospho-MAPK”.

Question: And the MAPK phosphorylation (MAPK [3]; MDA-MB-435, 10 μg/ml, absence of HGF)?
Answer: Its MAPK phosphorylation is “decrease in MAPK phosphorylation”.

Question: And the “gap closure in scrape assay in the presence of ligand” value (H441 cells; 0, 0.1, 0.5 or 5 μg/ml rSema plus 20 ng/ml HGF, data not shown)?
Answer: The value was “retained the gap in a dose dependent manner”.

Question: And the “gap closure in scrape assay” value (H441 cells; H441, 10 μg/ml, serum-free, absence of HGF, Day 2, mock gap closed completely)?
Answer: Its value is “a gap remained”.

Question: And the “cell migration (absorbance at 560 nm of migrated cells)” value (MDA-MB-435 cells)?
Answer: Its value is “consistently decreased”.

Question: And the Akt phosphorylation (Akt [4])?
Answer: The Akt phosphorylation was “dose dependent decrease in Akt phosphorylation”.

Question: What about the Akt phosphorylation (Akt [5]) of the same molecule?
Answer: Its Akt phosphorylation is “dose dependent decrease in Akt phosphorylation”.

Question: And the Met phosphorylation (Met; A549, serum starved, 0-100 μg/ml rSema with 10 ng/ml HGF, 10 min)?
Answer: Its Met phosphorylation is “decrease in Met phosphorylation”.

Question: What about the “ligand independent Met phosphorylation” value (Met; [6]) of the same molecule?
Answer: Its value is “inhibition”.
